Assay [1] has as its target human OX40 on cells (human) (UniProt P43489). The experiment in a line: cell-based or functional assay.
Assay [2] has the same target. The experiment in a line: flow cytometry on human PBMCs activated with anti-CD3/CD28 beads, 50 nM antibody. (Flow cytometry measures light scatter and fluorescence of single cells or particles in a stream.)

human OX40 on cells (human), sequence (P43489 29-277): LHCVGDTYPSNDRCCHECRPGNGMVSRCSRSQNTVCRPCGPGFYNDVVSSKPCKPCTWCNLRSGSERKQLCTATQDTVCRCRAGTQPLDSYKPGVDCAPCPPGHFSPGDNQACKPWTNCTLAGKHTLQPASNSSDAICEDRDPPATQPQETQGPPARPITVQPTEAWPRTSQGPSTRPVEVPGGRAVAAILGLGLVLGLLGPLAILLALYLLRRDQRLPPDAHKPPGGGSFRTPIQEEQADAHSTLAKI

The substance OX40L (ligand) yielded a Luciferase IFM, Jurkat-hOX40-NFκB-2 cells in assay [1] of 59000.

With IgG1 (antibody), in assay [2], the Binding percentage % was 23% and the MFI (ten thousand) stood at 7000.

These data come from US20230139700A1.
